This data set addresses OCT4 (human, UniProt Q01860 1-360). Description: EMSA; LightShift chemiluminescent EMSA kit (Thermo 20148) per manufacturer; buffer, salt, pH and temperature not stated. The conditions noted are these: protein: recombinant; label: 5' biotin on both strands; blunt. On the technique in general: In EMSA bound probe runs differently from free probe, usually more slowly.

Sequence of OCT4 (Q01860 whole entry): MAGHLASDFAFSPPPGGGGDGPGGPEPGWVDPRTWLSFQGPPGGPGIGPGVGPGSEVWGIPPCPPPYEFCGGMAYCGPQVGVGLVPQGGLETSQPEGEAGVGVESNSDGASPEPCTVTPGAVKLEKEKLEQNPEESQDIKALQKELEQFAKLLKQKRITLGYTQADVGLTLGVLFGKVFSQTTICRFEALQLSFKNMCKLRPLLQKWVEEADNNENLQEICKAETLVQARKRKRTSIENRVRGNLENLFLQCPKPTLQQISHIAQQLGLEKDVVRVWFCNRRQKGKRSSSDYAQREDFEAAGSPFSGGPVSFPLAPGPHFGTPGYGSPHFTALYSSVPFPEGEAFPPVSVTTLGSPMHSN

B1: TK1 probe 3 (dsDNA)
DNA 1: CGGGCTAACACCTTCACACTTTATGCAGAAAGTAACAAGGAACCATTCTGAG
DNA 2: CTCAGAATGGTTCCTTGTTACTTTCTGCATAAAGTGTGAAGGTGTTAGCCCG
Consider B1, for which the binding result is listed as “binds”.

B2: TK1 probe 1 (dsDNA)
DNA 1: GGGACCTGGCACGCACTAGGCGCTCTGCATGCCCACAGGAGTGCTCTAGACG
DNA 2: CGTCTAGAGCACTCCTGTGGGCATGCAGAGCGCCTAGTGCGTGCCAGGTCCC
Turning to B2, the binding result was “binds”.

B3: TK1 probe 2 (dsDNA)
DNA 1: CCTGGCAGGGTCTACGGATATTATTAGCATAGTCAGGACTTCAATTTTCTTT
DNA 2: AAAGAAAATTGAAGTCCTGACTATGCTAATAATATCCGTAGACCCTGCCAGG
Take B3: the binding result is “binds”.

(Values after publication PMC12990707, “Multiple novel hepatocellular carcinoma signature genes are commonly controlled by the master pluripotency factor OCT4”.)
